Measurements taken from IntAct's records for PubMed 20877282.

B1: Plexin-A2 (Mus musculus), P70207 (parent)
chain: MEQRRFYLRAMQADNLSVVLLSVAWLLLARGTTGMPQYSTFHSENRDWTFNHLTVHRRTGAVYVGAINRVYKLTGNLTIQVAHKTGPEEDNKACYPPLIVQPCSEVLTLTNNVNKLLIIDYSENRLLACGSLYQGVCKLLRLDDLFILVEPSHKKEHYLSSVNKTGTMYGVIVRSEGEDGKLFIGTAVDGKQDYFPTLSSRKLPRDPESSAMLDYELHSDFVSSLIKIPSDTLALVSHFDIFYIYGFASGGFVYFLTVQPETPDGMAINSAGDLFYTSRIVRLCKDDPKFHSYVSLPFGCTRAGVEYRLLQAAYLAKPGEALAQAFNISSDEDVLFAIFSKGQKQYHHPPDDSALCAFPIRAINLQIKERLQSCYHGEGNLELNWLLGKDVQCTKAPVPIDDNFCGLDINQPLGGSTPVEGLTLYTTSRDRLTSVASYVYNGYSVVFVGTKSGKLKKIRADGPPHGGVQYEMVSVFKDGSPILRDMAFSINQLYLYVMSERQVTRVPVESCEQYTTCGECLSSGDPHCGWCALHNMCSRRDKCQRAWEANRFAASISQCMSLEVHPNSISVSDHSRLLSLVVNDAPNLSEGIACAFGNLTEVEGQVSGSQVICISPGPKDVPVIPLDQDWFGLELQLRSKETGKIFVSTEFKFYNCSAHQLCLSCVNSAFRCHWCKYRNLCTHDPTTCSFQEGRINVSEDCPQLVPTEEILIPVGEVKPITLKARNLPQPQSGQRGYECVLSIQGAVHRVPALRFNSSSVQCQNSSYQYDGMDISNLAVDFAVVWNGNFIIDNPQDLKVHLYKCAAQRESCGLCLKADHKFECGWCSGERRCTLHQHCPSTSSPWLDWSSHNVKCSNPQITEILTVSGPPEGGTRVTIHGVNLGLDFSEIAHHVQVAGVPCTPIPGEYIIAEQIVCEMGHAVIGTTSGPVRLCIGECKPEFMTKSHQQYTFVNPSVLSLSPIRGPESGGTMVTITGHYLGAGSSVAVYLGNQTCEFYGRSMNEIVCVSPPSSNGLGPVPVSVSVDRARVDSSLQFEYIDDPRVQRIEPEWSITSGHTPLTITGFNLDVIQEPRVRVKFNGKESVNVCTVVNTTTLTCLAPSLTSDYRPGLDTVERPDEFGFLFNNVQSLLIYNDTKFIYYPNPTFELLSPTGILDQKPGSPIILKGKNLCPPASGGAKLNYTVMIGETPCTVTVSETQLLCEPPNLTGQHKVMVHVGGMVFSPGSVSVISDSLLTLPAIISIAAGGSLLLIIVIIVLIAYKRKSRENDLTLKRLQMQMDNLESRVALECKEAFAELQTDINELTSDLDRSGIPYLDYRTYAMRVLFPGIEDHPVLRELEVQGNGQQHVEKALKLFAQLINNKVFLLTFIRTLELQRSFSMRDRGNVASLIMTGLQGRLEYATDVLKQLLSDLIDKNLENKNHPKLLLRRTESVAEKMLTNWFAFLLHKFLKECAGEPLFMLYCAIKQQMEKGPIDAITGEARYSLSEDKLIRQQIEYKTLILNCVNPDNENSPEIPVKVLNCDTITQVKEKILDAVYKNVPYSQRPRAVDMDLEWRQGRIARVVLQDEDITTKIEGDWKRLNTLMHYQVSDRSVVALVPKQTSSYNIPASASISRTSISRYDSSFRYTGSPDSLRSRVPMITPDLESGVKVWHLVKNHDHGDQKEGDRGSKMVSEIYLTRLLATKGTLQKFVDDLFETLFSTVHRGSALPLAIKYMFDFLDEQADRHSIHDTDVRHTWKSNCLPLRFWVNVIKNPQFVFDIHKGSITDACLSVVAQTFMDSCSTSEHRLGKDSPSNKLLYAKDIPSYKNWVERYYADIAKLPAISDQDMNAYLAEQSRLHATEFNMLSALNEIYSYVSKYSEELIGALEQDEQARRQRLAYKVEHLINAMSIES
partner: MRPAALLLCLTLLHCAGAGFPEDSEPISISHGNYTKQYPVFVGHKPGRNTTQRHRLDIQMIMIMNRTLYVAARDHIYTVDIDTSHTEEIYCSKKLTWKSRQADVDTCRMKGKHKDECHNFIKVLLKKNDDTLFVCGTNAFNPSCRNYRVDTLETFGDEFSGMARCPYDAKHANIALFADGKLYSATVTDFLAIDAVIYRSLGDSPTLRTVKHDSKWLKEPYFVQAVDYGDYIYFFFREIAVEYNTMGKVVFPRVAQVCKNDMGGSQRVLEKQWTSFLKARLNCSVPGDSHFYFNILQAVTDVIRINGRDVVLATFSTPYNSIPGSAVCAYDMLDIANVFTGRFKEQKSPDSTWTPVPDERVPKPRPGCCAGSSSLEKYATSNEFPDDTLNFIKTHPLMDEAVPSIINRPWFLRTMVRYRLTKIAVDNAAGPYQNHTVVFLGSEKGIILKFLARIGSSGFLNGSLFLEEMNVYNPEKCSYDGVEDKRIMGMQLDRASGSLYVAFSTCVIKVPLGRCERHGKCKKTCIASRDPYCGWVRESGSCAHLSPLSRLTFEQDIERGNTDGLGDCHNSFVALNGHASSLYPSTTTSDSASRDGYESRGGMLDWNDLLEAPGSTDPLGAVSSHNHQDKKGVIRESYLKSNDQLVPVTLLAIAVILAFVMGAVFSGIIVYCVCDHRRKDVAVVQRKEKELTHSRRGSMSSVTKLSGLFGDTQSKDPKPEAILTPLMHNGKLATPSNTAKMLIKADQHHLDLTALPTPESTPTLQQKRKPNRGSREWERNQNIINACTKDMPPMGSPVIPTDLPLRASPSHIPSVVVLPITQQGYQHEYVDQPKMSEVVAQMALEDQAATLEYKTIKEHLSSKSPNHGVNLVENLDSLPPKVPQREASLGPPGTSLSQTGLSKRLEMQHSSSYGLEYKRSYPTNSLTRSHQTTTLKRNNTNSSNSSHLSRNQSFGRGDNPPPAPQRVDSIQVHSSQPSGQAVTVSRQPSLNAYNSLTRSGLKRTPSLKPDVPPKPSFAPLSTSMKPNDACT
B2: Semaphorin-6A (Mus musculus), O35464-1 (parent)
chain: B1 partner

Variants of: B1
Conditions: with Sema6a

| Variant | effect of a mutation on the interaction |
| --- | --- |
| F221R | disrupting interaction |
| A396E | disrupting interaction |

Variants of: B2
Conditions: with plxa2_mouse Plxna2, P70207

| Variant | effect of a mutation on the interaction |
| --- | --- |
| L191R | decreasing interaction |
